Read-outs that look alike come from different tables or passages of the source.
How the values were obtained:
HCT15-hPDL1 cells = test: cells; assay type: cell-based, human; details: 5 days exposure, read-out: HCT15-hPDL1 cell IC50
Experimental: The cell line was named as HCT15-hPDL1.
(§1) The in vitro anti-tumor activity was determined by CellTiter-Glo® Luminescent Cell Viability Assay (Promega) according to the manufacturer's instructions. […] Untreated cells served as control. ADCs, antibodies, or payloads in 100 μL medium were added in duplicate at various concentrations with a 2-fold dilution series starting with concentrations of 1 uM, respectively. Cells were exposed to test articles for 5 days. Absorbance was measured at 450 nm by a microplate reader. The cell survival rate (%) was calculated using the following formula: sample/control×100%.

HCT15-hPDL1-hTROP2 cells = test: In vitro cytotoxicity, HCT15-hPDL1-hTROP2 cells; assay type: cell-based, human
Experimental: The cell line was named as HCT15-hPDL1-hTROP2.
as §1

[1] = Stability of SN-38 (lactone / lactone ring opening vs pH); assay type: physicochemical
Experimental: A hydrochloric acid solution with a pH of 4 and a sodium hydroxide solution with a pH of 10 were prepared respectively. 5 mg of SN-38 was dissolved in 5 mL of acetonitrile. The stability of SN-38 in a solution of changing pH (pH=10 to pH=4) was measured by shaking SN-38 at room temperature under pH=10 for 10 min, then adjusting the pH back to 4 and shake at room temperature for 10 min before sampling. SN-38 was then incubated at room temperature overnight (16 h) on a shaker and assayed afterwards.

PC3-hPDL1-hTROP2 cells = test: cells; assay type: cell-based, human; details: 5 days exposure, read-out: PC3-hPDL1-hTROP2 cell IC50
Experimental: as §1

CathepsinB = CathepsinB (Homo sapiens, UniProt P07858); test: Digestion of the drug-linkers by CathepsinB; details: 125 nM enzyme, 62.5 μM drug-linker, pH 5.5, 37° C., 3 hours
Experimental: To simulate the release of drug under physiological conditions, the drug-linkers were subjected to cleavage by CathepsinB, after which an elimination reaction occurred and unmodified drug was released.
Lyophilized CathepsinB enzyme powder was dissolved in 130 μL of pure water, and divided into 13 tubes of 10 μL each. […] Activation buffer (20 mM sodium acetate, 30 mM DTT, 15 mM EDTA, pH 5.5) was then added to a tube of enzyme to activate the enzyme for 1 hour at room temperature.

[2] = system: T1, uPA substrate peptide SEQ ID NO: 51
T1 sequence: SGRSA

[3] = system: T2, uPA substrate peptide SEQ ID NO: 53
T2 sequence: LGGSGRNAQVRLE

[4] = system: T3, uPA substrate peptide SEQ ID NO: 50
T3 sequence: LSGRSDNH

[5] = system: T4, uPA substrate peptide SEQ ID NO: 54
T4 sequence: GSGRNAQV

[6] = system: T5, uPA substrate peptide SEQ ID NO: 52
T5 sequence: LGGSGRSANAILE

[7] = alkaline conditions 10 minutes, then acidic conditions (pH 10→4) before testing
[8] = pH 10→4, after incubation overnight (16 h)

Tissue-type Plasminogen Activator (tPA), sequence (P00750 36-562): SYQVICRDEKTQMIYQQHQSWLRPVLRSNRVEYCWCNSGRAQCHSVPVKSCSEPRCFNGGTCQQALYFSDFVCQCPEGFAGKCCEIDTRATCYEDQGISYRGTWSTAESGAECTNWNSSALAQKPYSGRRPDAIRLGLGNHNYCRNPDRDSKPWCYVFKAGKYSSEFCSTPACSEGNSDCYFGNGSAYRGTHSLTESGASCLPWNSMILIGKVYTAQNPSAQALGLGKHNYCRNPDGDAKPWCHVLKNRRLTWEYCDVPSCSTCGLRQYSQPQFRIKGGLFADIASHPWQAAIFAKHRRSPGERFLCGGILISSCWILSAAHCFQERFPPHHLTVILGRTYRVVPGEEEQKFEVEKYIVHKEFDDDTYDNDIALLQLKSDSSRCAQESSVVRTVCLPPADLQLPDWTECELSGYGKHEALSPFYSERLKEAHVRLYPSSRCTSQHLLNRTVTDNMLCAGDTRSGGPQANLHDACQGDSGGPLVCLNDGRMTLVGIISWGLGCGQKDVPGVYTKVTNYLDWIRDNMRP

For `CCc1c2c(nc3ccc(O)cc13)-c1cc3c(c(=O)n1C2)COC(=O)[C@]3(O)CC` [SN38, 7-ethyl-10-hydroxy-20(S)-camptothecin], the IC50 (HCT15-hPDL1 cells; Homo sapiens, 120 h) was 11.2 nM, the “Maximum Inhibitory Rate” value (HCT15-hPDL1-hTROP2 cells; HCT15-hPDL1-hTROP2 cells) was greater than 99.9% and the IC50 (HCT15-hPDL1-hTROP2 cells; Homo sapiens, 120 h, 5 days exposure, read-out: HCT15-hPDL1-hTROP2 cell IC50) was 9.57 nM. The existing as lactone ([1]; acidic conditions (pH 4)) was 94%, the lactone ring-opening products [1, 7] was 42% and the “present in the form of lactone” value [1, 7] was 56%. For the same molecule, the lactone ring-opened form ([1]; alkaline conditions (pH 10)) was 92%, the “in the form of lactone” value [1, 8] was 86% and the lactone ring-opening products [1, 8] was 13%. For the same molecule, the IC50 (PC3-hPDL1-hTROP2 cells; Homo sapiens, 120 h) was 8.69 nM.

With “Glycine3-amido-PEG8-VC-PAB-DMAE-phenol linked SN38 [Compound of Formula (1)]” the “Product released on CathepsinB digestion” value (CathepsinB) was “SN38” and the IC50 (PC3-hPDL1-hTROP2 cells) was greater than 250 nM.

With “Glycine3-amido-PEG8-VC-PAB-DMAE-α-hydroxy lactone linked SN38 [Compound of Formula (2)]” the “CathepsinB digestion” value (CathepsinB) was “effectively digested”, the “Product released on CathepsinB digestion” value (CathepsinB) was “SN38 derivatives” and the IC50 (HCT15-hPDL1 cells) was 38.1 nM. For the same molecule, the IC50 (PC3-hPDL1-hTROP2 cells) was 53.1 nM.

With Tissue-type Plasminogen Activator (tPA) the Fluorescence Intensity, Fold of Increase, tPA digestion at 2.25 × 10^-2 mg/mL (FRET) [2] was 5.4 fold, the Fluorescence Intensity, Fold of Increase, tPA digestion at 7.5 × 10^-3 mg/mL (FRET) [2] was 2.1 fold and the Fluorescence Intensity, Fold of Increase, tPA digestion at 2.25 × 10^-2 mg/mL (FRET) [3] was 1.3 fold. It also gave a Fluorescence Intensity, Fold of Increase, tPA digestion at 7.5 × 10^-3 mg/mL (FRET) [3] of 0.73 fold, a Fluorescence Intensity, Fold of Increase, tPA digestion at 2.25 × 10^-2 mg/mL (FRET) [4] of 1.1 fold and a Fluorescence Intensity, Fold of Increase, tPA digestion at 7.5 × 10^-3 mg/mL (FRET) [4] of 0.63 fold. The Fluorescence Intensity, Fold of Increase, tPA digestion at 2.25 × 10^-2 mg/mL (FRET) [5] was 2.6 fold, the Fluorescence Intensity, Fold of Increase, tPA digestion at 7.5 × 10^-3 mg/mL (FRET) [5] was 0.91 fold and the Fluorescence Intensity, Fold of Increase, tPA digestion at 2.25 × 10^-2 mg/mL (FRET) [6] was 2.1 fold. The Fluorescence Intensity, Fold of Increase, tPA digestion at 7.5 × 10^-3 mg/mL (FRET) [6] was 1.2 fold.

For “Urokinase-type Plasminogen Activator (uPA)”, the Fluorescence Intensity, Fold of Increase, uPA cleavage (FRET) [2] was 9.6 fold, the Fluorescence Intensity, Time to Reach Plateau (h), uPA cleavage (FRET) [2] was 1.8 h and the Fluorescence Intensity, Fold of Increase, uPA cleavage (FRET) [3] was 3 fold. The Fluorescence Intensity, Time to Reach Plateau (h), uPA cleavage (FRET) [3] was 1.6 h, the Fluorescence Intensity, Fold of Increase, uPA cleavage (FRET) [4] was 4.9 fold and the Fluorescence Intensity, Time to Reach Plateau (h), uPA cleavage (FRET) [4] was 1.7 h. The Fluorescence Intensity, Fold of Increase, uPA cleavage (FRET) [5] was 4.7 fold, the Fluorescence Intensity, Time to Reach Plateau (h), uPA cleavage (FRET) [5] was 1.4 h and the Fluorescence Intensity, Fold of Increase, uPA cleavage (FRET) [6] was 3.1 fold. For the same molecule, the Fluorescence Intensity, Time to Reach Plateau (h), uPA cleavage (FRET) [6] was 1.4 h.

— patent US20240299576A1, “TARGETING […] MOLECULES AND USES THEREOF” (priority 2021, published 2024)
